Laboratory results as given in patent publication US20190177709.

Tests used:
Test in all cases: cell_activity
[1] = biological target: ZFN 65459 (left) F1 Qm14 Qm5, F3 Qm5, F5 Qm5 (R to Q) (synthetic) (UniProt P14870); conditions: with 65526, L:R 60:15 ug RNA, CD34+ cells
[2] = biological target: ZFN 65526 (right) F1 Qm5, F2 Qm5, F4 Qm5, F5 Qm5 (R to Q); FokI R416S (synthetic) (UniProt P14870); conditions: with 63014, L:R 60:15 ug RNA, CD34+ cells
[3] = biological target: ZFN 65550 (right) F1 Qm5, F2 Qm5, F4 Qm5, F5 Qm5 (R to Q); FokI K525S (synthetic) (UniProt P14870); conditions: with 63014, 60:60 ug RNA, CD34+ cells; Table 3 gives 79.96
[4] = biological target: ZFN 65549 (right) F1 Qm5, F2 Qm5, F3 Qm5, F4 Qm5 (R to Q); FokI K525S (synthetic) (UniProt P14870); conditions: with 63014, 60:60 ug RNA, CD34+ cells; Table 3 gives 79.82

With “AAAGCAACTGTTAGCTTGCACTAGACTA (double strand) [BCL11A +58 left half-site]” the activity [1] was 76.9 % indels.
In the case of “CACAGGCTCCAGGAAGGGTTTGGCCTCT (double strand) [BCL11A +58 right half-site]”, the activity [2] is reported as 81.2 % indels, the activity [3] is reported as 79.8 % indels and the activity [4] is reported as 80 % indels.
